Data on two molecules can be found in US20040259770A1, “Method for determining leukocyte activation” (Rush University Medical Center, priority 2003, published 2004).

For assay [1], the system named is eosinophils. Briefly: Eosinophil superoxide production (cytochrome c reduction) in protein-coated tissue culture wells. The format is cell-based, human. As to the method: Neutrophils were isolated from venous blood of healthy adult volunteers by density gradient centrifugation through lymphocyte separation medium (BioWhittaker; Walkersville, Md.) as described previously (Haskell M. D., et al., Blood 86:4627-4637 (1995)) with one modification. Isotonicity was restored following the brief hypotonic lysis steps by the addition of 2× concentrated Hank's Balanced Salt Solution (HBSS) (Gibco; Grand Island, N.Y.) (without Ca^2+ and Mg^2+) containing 5 mM HEPES, pH 7.4. The cells were suspended in HEPES (10 mM)-buffered HBSS (with Ca^2+ and Mg^2+), pH 7.4, containing 1 milligram per milliliter of human serum albumin (HSA) (Sigma Chemical Co.) (HEPES-HBSS-HSA buffer). Neutrophil purity was routinely greater than 95 percent, with eosinophils representing the remainder of the cells. Eosinophils were isolated from the neutrophil preparations by negative selection (Hansel T. T., et al., J. Immunol. Meth. 145:105-10 (1991)) using anti-CD16 immunomagnetic beads as described by the manufacturer (Miltenyi Biotec, Inc., Auburn, Calif.). The eosinophils were suspended in HEPES-HBSS-HSA buffer. Eosinophil purity was routinely greater than 95 percent as determined by counting Wright-stained cytospin preparations. In some assays, an aliquot of the neutrophil preparation was held on ice for later use.
Superoxide production was measured essentially as described elsewhere (Motegi, Y., and H. Kita, J. Immunol. 161:4340 (1998)). Briefly, wells in a 96-well (flat bottom) tissue culture plate (Corning, Inc.; Corning, N.Y.) were coated with human milk lactoferrin (Sigma Chemical Co.) or human secretory IgA (ICN Biomedical; Aurora, Ohio) by incubation with 50 microliters of the indicated concentrations of the proteins in phosphate buffered saline (PBS) overnight at 4° C. Non-specific protein binding sites were blocked by subsequent incubation with 100 microliters of 25 milligrams per milliliter of HSA in PBS for 2 hours at 37° C., and the tissue culture wells were washed twice with PBS before use. Aliquots (5×10^4 cells) of eosinophils or neutrophils were added to the wells and were incubated in HEPES-HBSS—HSA buffer containing 50 micromolar cytochrome c (Sigma Chemical Co.) for 120 minutes at 37° C. in a Ceres UV900HDi microplate reader (Bio-Tek Instruments, Inc., Winooski, Vt.). Total incubation volume was 0.2 milliliters. Absorbance at 550 nanometers was recorded at 15-minute intervals, and superoxide production was calculated as described previously (Motegi, Y., and H. Kita, J. Immunol. 161:4340 (1998)). Results are expressed as nanomoles superoxide per 10^5 cells after subtraction of spontaneous production, which was measured in tissue culture wells coated only with HSA. GM-CSF (R & D Systems; Minneapolis, Minn.), porcine heparin (Sigma Chemical Co.), or chondroitin sulfate C (Sigma Chemical Co.) was added to the incubation mixtures in some assays as indicated.

Another assay relates to neutrophils. Briefly: Neutrophil superoxide production (cytochrome c reduction) in protein-coated tissue culture wells. The format is cell-based, human. As to the method:
Neutrophils were isolated from venous blood of healthy adult volunteers by density gradient centrifugation through lymphocyte separation medium (BioWhittaker; Walkersville, Md.) as described previously (Haskell M. D., et al., Blood 86:4627-4637 (1995)) with one modification. Isotonicity was restored following the brief hypotonic lysis steps by the addition of 2× concentrated Hank's Balanced Salt Solution (HBSS) (Gibco; Grand Island, N.Y.) (without Ca^2+ and Mg^2+) containing 5 mM HEPES, pH 7.4. The cells were suspended in HEPES (10 mM)-buffered HBSS (with Ca^2+ and Mg^2+), pH 7.4, containing 1 milligram per milliliter of human serum albumin (HSA) (Sigma Chemical Co.) (HEPES-HBSS-HSA buffer). […] Eosinophil purity was routinely greater than 95 percent as determined by counting Wright-stained cytospin preparations. […]
Superoxide production was measured essentially as described elsewhere (Motegi, Y., and H. Kita, J. Immunol. 161:4340 (1998)). […] Aliquots (5×10^4 cells) of eosinophils or neutrophils were added to the wells and were incubated in HEPES-HBSS—HSA buffer containing 50 micromolar cytochrome c (Sigma Chemical Co.) for 120 minutes at 37° C. in a Ceres UV900HDi microplate reader (Bio-Tek Instruments, Inc., Winooski, Vt.). […] Results are expressed as nanomoles superoxide per 10^5 cells after subtraction of spontaneous production, which was measured in tissue culture wells coated only with HSA. […]

The subject of assay [2] is eosinophils. Briefly: Eosinophil degranulation: EDN release by ELISA. It counts as cell-based, human. The settings on record: 3 to 100 micrograms per milliliter immobilized, 4 hours at 37° C, maximum at 100 micrograms per milliliter. As to the method:
Eosinophils (2×10^5) were incubated in the presence and absence of 100 picograms per milliliter of GM-CSF in RPMI 1640 containing 1 milligram per milliliter of HSA for 4 hours at 37° C. in 5 percent CO2 in tissue culture wells precoated with lactoferrin or secretory IgA as above. Total incubation volume was 0.2 milliliters. Reactions were stopped by centrifugation at 300 g for 5 minutes at 4° C., and supernatants were stored at −20° C. until measurement of eosinophil-derived neurotoxin (EDN) content by specific ELISA (MBL International, Watertown, Mass.). Spontaneous release of EDN was determined with cells incubated in HSA-coated wells.
(In general: ELISA stands for enzyme-linked immunosorbent assay.)

In assay [3] the test system is eosinophils. Briefly: Eosinophil leukotriene C4 production by ELISA. The settings on record: 1 hour. The format is cell-based, human. As to the method: Eosinophils (2×10^5) were incubated in the presence and absence of 100 pg/ml GM-CSF in RPMI 1640 containing 10 mM HEPES for 1 hr at 37° C. in tissue culture wells precoated with lactoferrin or secretory IgA as above with one modification. The tissue culture wells were not treated with HSA and HSA was not added to the incubation buffer to minimize loss of leukotriene C4. Total incubation volume was 0.2 ml. Reactions were stopped by centrifugation at 300 g for 5 min at 4° C., and supernatants were stored at −20° C. until measurement of leukotriene C4 content by a leukotriene C4/D4/E4 ELISA (Amersham Pharmacia Biotech; Piscataway, N.J.). Spontaneous leukotriene C4 production was determined with eosinophils incubated in untreated tissue culture wells.

The test system of assay [4] is eosinophils. Briefly: Flow cytometric analysis of binding of lactoferrin by eosinophils. Details: species or system human. As to the method: Eosinophils (10^6 cells) were incubated with or without the indicated concentrations of lactoferrin in 100 microliters of HEPES-HBSS-HSA buffer for 90 minutes at 4° C. The cells were collected by centrifugation at 300 g for 5 minutes at 4° C., and then incubated with 1.5 micrograms FITC-conjugated polyclonal anti-lactoferrin (Sigma Chemical Co.) or FITC-conjugated rabbit IgG (Sigma Chemical Co.) in 25 microliters PBS (pH 7.2) containing 0.1 percent gelatin and 0.1 percent azide (PBS-gel-azide) for 30 minutes on ice. The cells were washed twice in ice-cold PBS-gel-azide and were suspended in PBS-gel-azide buffer containing 1 percent formaldehyde for analysis by flow cytometry. Fluorescence intensity of 10,000 cells in each sample was measured using a FACScan flow cytometer (Becton-Dickinson; San Jose, Calif.).
For orientation: In flow cytometry, cells or beads pass a laser one at a time.

The test system of assay [5] is lactoferrin receptor on neutrophils. The settings on record: Boxer et al. 1982, cited from earlier work.

Read-outs that look alike come from different tables or passages of the source.

B1: immobilized lactoferrin: human milk lactoferrin (Sigma) coated on tissue culture wells overnight at 4° C (protein, UniProt P02788 20-710, looked up)
Lactotransferrin: GRRRSVQWCAVSQPEATKCFQWQRNMRKVRGPPVSCIKRDSPIQCIQAIAENRADAVTLDGGFIYEAGLAPYKLRPVAAEVYGTERQPRTHYYAVAVVKKGGSFQLNELQGLKSCHTGLRRTAGWNVPIGTLRPFLNWTGPPEPIEAAVARFFSASCVPGADKGQFPNLCRLCAGTGENKCAFSSQEPYFSYSGAFKCLRDGAGDVAFIRESTVFEDLSDEAERDEYELLCPDNTRKPVDKFKDCHLARVPSHAVVARSVNGKEDAIWNLLRQAQEKFGKDKSPKFQLFGSPSGQKDLLFKDSAIGFSRVPPRIDSGLYLGSGYFTAIQNLRKSEEEVAARRARVVWCAVGEQELRKCNQWSGLSEGSVTCSSASTTEDCIALVLKGEADAMSLDGGYVYTAGKCGLVPVLAENYKSQQSSDPDPNCVDRPVEGYLAVAVVRRSDTSLTWNSVKGKKSCHTAVDRTAGWNIPMGLLFNQTGSCKFDEYFSQSCAPGSDPRSNLCALCIGDEQGENKCVPNSNERYYGYTGAFRCLAENAGDVAFVKDVTVLQNTDGNNNEAWAKDLKLADFALLCLDGKRKPVTEARSCHLAMAPNHAVVSRMDKVERLKQVLLHQQAKFGRNGSDCPDKFCLFQSETKNLLFNDNTECLARLHGKTTYEKYLGPQYVAGITNLKKCSTSPLLEACEFLRK
modifications: immobilized
notes: human milk lactoferrin (Sigma) coated on tissue culture wells overnight at 4° C
Turning to B1, the “stimulation of eosinophil superoxide production (in words)” value with eosinophils [1] (1 to 100 micrograms per milliliter of the protein, 2 hours at 37° C) was “stimulated marked superoxide production”; in the assay with eosinophils [1] (immobilized at concentrations less than 3 micrograms per milliliter) it was “did not appear to stimulate superoxide production”. Moreover, the “concentration giving maximum (peak) superoxide production” value with eosinophils [1] (2-hour time point, absence of GM-CSF) was determined as 30 micrograms per milliliter. In the assay on eosinophils [1] (3 or 10 micrograms per milliliter lactoferrin plus 1 or 3 micrograms per milliliter secretory IgA, n=4), the “superoxide production with immobilized lactoferrin and immobilized secretory IgA in combination” value was “additive levels of superoxide production”. In addition, the “maximum response of superoxide production” value with eosinophils [1] (30 micrograms per milliliter immobilized, 2-hour time point, five assays, corrected for spontaneous production) is on record as “approximately 5 nanomoles superoxide per 10^5 eosinophils”. The eosinophil superoxide production in the assay on eosinophils [1] (30 micrograms per milliliter immobilized, Example 3 assays (same donors as neutrophils), spontaneous value subtracted) was 5.5±1.4 nanomoles per 10^5 eosinophils. In addition, the “potency relative to immobilized secretory IgA” value in the assay with eosinophils [1] (superoxide production, same assays) is given as “approximately one-third”. Moreover, in the assay with neutrophils (1 to 100 micrograms per milliliter immobilized, up to 2 hours), the “stimulation of neutrophil superoxide production (in words)” value was “did not produce significant superoxide production”. In addition, the “neutrophil superoxide production as percent of eosinophil superoxide production stimulated by 30 micrograms per milliliter immobilized lactoferrin” value in the assay with neutrophils (100 microgram per milliliter immobilized lactoferrin) worked out at 25%. In the assay on eosinophils [2], the “net release of EDN” value was ≤ 1000 nanograms of EDN per 10^6 eosinophils. Besides, the “leukotriene C4 production (in words)” value with eosinophils [3] (3 to 100 micrograms per milliliter immobilized, no GM-CSF) was “stimulated only low levels of leukotriene C4”. In addition, the “leukotriene C4 production” value was 115 picograms leukotriene C4 per 10^6 eosinophils in the assay on eosinophils [3] (10 micrograms per milliliter immobilized lactoferrin alone) and 955 picograms leukotriene C4 per 10^6 eosinophils in the assay with eosinophils [3] (10 micrograms per milliliter immobilized lactoferrin together with 100 picograms per milliliter GM-CSF).

B2: lactoferrin: 78-80 kilodalton multifunctional glycoprotein of external secretions and neutrophil secondary granules (protein, UniProt P02788 20-710, looked up)
Lactotransferrin: GRRRSVQWCAVSQPEATKCFQWQRNMRKVRGPPVSCIKRDSPIQCIQAIAENRADAVTLDGGFIYEAGLAPYKLRPVAAEVYGTERQPRTHYYAVAVVKKGGSFQLNELQGLKSCHTGLRRTAGWNVPIGTLRPFLNWTGPPEPIEAAVARFFSASCVPGADKGQFPNLCRLCAGTGENKCAFSSQEPYFSYSGAFKCLRDGAGDVAFIRESTVFEDLSDEAERDEYELLCPDNTRKPVDKFKDCHLARVPSHAVVARSVNGKEDAIWNLLRQAQEKFGKDKSPKFQLFGSPSGQKDLLFKDSAIGFSRVPPRIDSGLYLGSGYFTAIQNLRKSEEEVAARRARVVWCAVGEQELRKCNQWSGLSEGSVTCSSASTTEDCIALVLKGEADAMSLDGGYVYTAGKCGLVPVLAENYKSQQSSDPDPNCVDRPVEGYLAVAVVRRSDTSLTWNSVKGKKSCHTAVDRTAGWNIPMGLLFNQTGSCKFDEYFSQSCAPGSDPRSNLCALCIGDEQGENKCVPNSNERYYGYTGAFRCLAENAGDVAFVKDVTVLQNTDGNNNEAWAKDLKLADFALLCLDGKRKPVTEARSCHLAMAPNHAVVSRMDKVERLKQVLLHQQAKFGRNGSDCPDKFCLFQSETKNLLFNDNTECLARLHGKTTYEKYLGPQYVAGITNLKKCSTSPLLEACEFLRK
In the case of B2, the “fluorescence intensity with FITC-conjugated anti-lactoferrin antibody” value in the assay with eosinophils [4] (30 micrograms per milliliter soluble lactoferrin, 90 minutes at 4° C) is recorded as “marked increase in the fluorescence intensity”; with eosinophils [4] (100 micrograms per milliliter lactoferrin) it was “did not produce any further increase in the level of fluorescence intensity”. Moreover, the “lactoferrin concentration at which binding by eosinophils is saturated” value in the assay on eosinophils [4] (flow cytometry analysis, approximately 0.4 micromolar) was found to be 30 micrograms per milliliter. In addition, the Kd in assay [5] (read-out: dissociation constant of lactoferrin receptor described for neutrophils) and in assay [5] (read-out: dissociation constant of lactoferrin receptor described on neutrophils) was roughly 200 nM throughout.
